# Reference: patent US20210017226A1 (PEPTION, published 2021)
# Ends that are not written are not given here.
# T1: PTD10 (Hs-PDGF-B_136-145), synthetic peptide IEIVRKKPIFC (human)
# T1 peptide: IEIVRKKPIFC
# T2: PTD8 (Ec-AP_159-168), synthetic peptide LVAHVTSRKC (Escherichia coli)
# T2 construct: also called control peptide (unrelated) in the Cas9 blots
# T2 peptide: LVAHVTSRKC
# T3: purified horseradish peroxidase (HRP) protein (horseradish, UniProt P00433 31-338)
# T3 sequence (looked up): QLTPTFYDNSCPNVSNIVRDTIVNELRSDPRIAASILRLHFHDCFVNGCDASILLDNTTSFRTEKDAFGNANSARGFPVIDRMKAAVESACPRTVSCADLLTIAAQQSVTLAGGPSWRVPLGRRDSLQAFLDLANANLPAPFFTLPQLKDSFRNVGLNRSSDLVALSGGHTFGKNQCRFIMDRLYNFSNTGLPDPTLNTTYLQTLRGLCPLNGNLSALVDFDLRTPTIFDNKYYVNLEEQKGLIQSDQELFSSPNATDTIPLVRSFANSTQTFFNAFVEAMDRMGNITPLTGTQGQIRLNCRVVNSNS
# B1: C9-813-CAA2 (dimer, parallel-linker-antiparallel), recombinant CAAP oligopeptide-AP fusion protein (designed binder, not shown: small tags and cut ends; large carriers)
# chain: MHHHHHHELLLSVEVQQLCYPENLEYLFIEKL
# notes: also called rAb C9-813-CAA2; dimer construct
# B2: V5C2-L-HRPC2, purified polypeptide with two CAAP box dimer arms designed to interact with V5 epitope and HRP (designed binder)
# chain: MSRKEARELCYPENGLEALIRSGGGSGGGSGGGSYYLRKRILCYPENQVLERSNEGSGSKLLEHHHHHH
# B3: PTD20 (2GS6H), synthetic linker-His-tag oligopeptide (peptide)
# peptide: GSGSHHHHHH
# notes: also called linker-His-tag only; negative control
# How the values were obtained:
# [1] = target: T1, PTD10 (Hs-PDGF-B_136-145), synthetic …; test: dot blot, anti-6His Ab-HRP detection
# [2] = target: T2, PTD8 (Ec-AP_159-168), synthetic peptide …; test: dot blot, AP fusion as 1st Ab, NBT/BCIP
# [3] = target: T4, Cas9 protein without any tag (no tag), recombinant Streptococcus pyogenes Cas9 (Streptococcus pyogenes, UniProt Q99ZW2 1-1368); test: dot blot (non-denatured) and western blot (denatured), anti-6His Ab-HRP detection
# T4 construct: also called Cas9 (no tag); tagless Cas9
# [4] = target: T2, PTD8 (Ec-AP_159-168), synthetic peptide …; test: dot blot, peptide spotted on NC membrane, anti-6His Ab-HRP detection
# [5] = target: T2, PTD8 (Ec-AP_159-168), synthetic peptide …; test: dot blot, anti-6His Ab-HRP detection
# [6] = target: T3, purified horseradish peroxidase (HRP) …; test: dot blot, HRP captured by V5C2-L-HRPC2 bound to immobilized PTD19, chromogenic substrate
# T4 sequence (Q99ZW2 whole entry): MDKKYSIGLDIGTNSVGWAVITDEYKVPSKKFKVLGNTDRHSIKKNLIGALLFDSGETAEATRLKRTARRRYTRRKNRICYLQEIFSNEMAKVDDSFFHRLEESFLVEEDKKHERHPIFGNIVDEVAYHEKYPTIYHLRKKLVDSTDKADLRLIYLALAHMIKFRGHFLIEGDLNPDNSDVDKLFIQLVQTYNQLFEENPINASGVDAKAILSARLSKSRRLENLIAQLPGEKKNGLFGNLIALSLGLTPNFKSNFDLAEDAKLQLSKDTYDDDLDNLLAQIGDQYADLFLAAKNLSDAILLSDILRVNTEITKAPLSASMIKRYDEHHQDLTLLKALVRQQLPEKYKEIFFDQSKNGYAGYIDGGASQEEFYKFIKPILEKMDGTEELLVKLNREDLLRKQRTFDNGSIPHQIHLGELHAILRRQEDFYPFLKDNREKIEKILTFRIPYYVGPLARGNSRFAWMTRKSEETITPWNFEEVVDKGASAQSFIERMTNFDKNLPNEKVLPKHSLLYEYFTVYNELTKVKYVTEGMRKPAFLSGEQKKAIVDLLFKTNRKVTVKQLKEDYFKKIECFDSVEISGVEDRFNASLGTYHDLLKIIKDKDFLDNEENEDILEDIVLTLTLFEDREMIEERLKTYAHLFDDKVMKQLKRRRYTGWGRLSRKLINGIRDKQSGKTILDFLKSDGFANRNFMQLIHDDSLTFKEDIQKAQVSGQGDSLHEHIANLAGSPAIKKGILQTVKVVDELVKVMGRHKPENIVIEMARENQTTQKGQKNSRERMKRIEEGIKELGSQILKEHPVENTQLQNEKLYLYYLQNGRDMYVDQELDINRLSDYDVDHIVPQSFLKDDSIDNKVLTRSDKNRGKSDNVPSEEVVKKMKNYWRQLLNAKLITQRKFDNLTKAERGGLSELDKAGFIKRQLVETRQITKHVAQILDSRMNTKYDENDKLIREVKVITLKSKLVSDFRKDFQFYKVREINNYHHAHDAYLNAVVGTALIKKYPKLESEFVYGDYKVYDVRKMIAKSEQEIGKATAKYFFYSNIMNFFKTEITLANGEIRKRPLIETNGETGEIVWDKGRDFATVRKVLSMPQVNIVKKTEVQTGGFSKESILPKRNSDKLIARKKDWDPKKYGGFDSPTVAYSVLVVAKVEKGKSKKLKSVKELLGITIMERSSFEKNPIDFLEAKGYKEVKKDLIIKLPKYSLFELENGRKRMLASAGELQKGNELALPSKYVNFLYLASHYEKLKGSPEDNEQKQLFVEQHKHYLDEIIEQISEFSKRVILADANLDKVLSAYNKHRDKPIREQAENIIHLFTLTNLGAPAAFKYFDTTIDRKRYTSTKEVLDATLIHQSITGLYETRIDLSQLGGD
Binder,binding result [1],binding result [5],also measured
"DLDYAQLRDKCYPENEDRLQSYDLDGSGSHHHHHH (designed binder, also: dimer, parallel and antiparallel, also called Anti-PDGF sAb)",binds,–,–
B1,–,–,binding result [2]: no binding
"LLQVDVILLCYPENLEQIKIRLFGSGSHHHHHH (designed binder, also: dimer, also called sAb dimer; CCAAP sAb dimer) [PTD14 (Sp-C9_CAA813-821PAPH), synthetic His-tagged CAAP oligopeptide dimer]",–,–,binding result [3]: binds; binding result [4]: no binding
"EYRLYLRALCYPENLSRAYLSYEGSGSHHHHHH (designed binder, also: dimer, parallel and antiparallel)",–,binds,–
B2,–,–,binding result [6]: binds
B3,no binding,no binding,–
